{
  "source": "patent US20230272028",
  "key": {"[1]": {"system": "ALU30-5", "sequence (chain, as listed by the source)": "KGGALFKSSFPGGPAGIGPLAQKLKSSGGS"}, "[2]": {"system": "ALU30-12", "sequence (chain, as listed by the source)": "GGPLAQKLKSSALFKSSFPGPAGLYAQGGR"}, "[3]": {"system": "ALU30-1", "sequence (chain, as listed by the source)": "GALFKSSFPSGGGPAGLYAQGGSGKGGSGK"}, "[4]": {"system": "ALU30-14", "sequence (chain, as listed by the source)": "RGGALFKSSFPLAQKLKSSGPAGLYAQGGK"}, "[5]": {"system": "ALU30-13", "sequence (chain, as listed by the source)": "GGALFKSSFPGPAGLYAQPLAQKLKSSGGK"}, "[6]": {"system": "ALU30-15", "sequence (chain, as listed by the source)": "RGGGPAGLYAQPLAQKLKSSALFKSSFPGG"}, "[7]": {"system": "ALU30-11", "sequence (chain, as listed by the source)": "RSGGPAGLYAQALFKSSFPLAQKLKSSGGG"}, "[8]": {"system": "ALU30-17", "sequence (chain, as listed by the source)": "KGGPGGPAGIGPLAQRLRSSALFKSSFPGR"}, "[9]": {"system": "ALU30-10", "sequence (chain, as listed by the source)": "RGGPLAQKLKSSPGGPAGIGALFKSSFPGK"}, "[10]": {"system": "ALU30-9", "sequence (chain, as listed by the source)": "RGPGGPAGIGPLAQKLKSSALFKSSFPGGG"}, "[11]": {"system": "CTSL1_2 9-mer FRET substrate Mca-ALFFSSPPSK-Dnp"}, "[12]": {"system": "ALU30-6", "sequence (chain, as listed by the source)": "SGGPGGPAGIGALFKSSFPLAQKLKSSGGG"}, "[13]": {"system": "ALU30-16", "sequence (chain, as listed by the source)": "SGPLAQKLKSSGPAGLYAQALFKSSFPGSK"}, "[14]": {"system": "ALU30-7", "sequence (chain, as listed by the source)": "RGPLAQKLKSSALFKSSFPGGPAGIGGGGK"}, "[15]": {"system": "ALU30-8", "sequence (chain, as listed by the source)": "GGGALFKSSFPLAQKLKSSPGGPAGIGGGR"}, "[16]": {"system": "ALU30-18", "sequence (chain, as listed by the source)": "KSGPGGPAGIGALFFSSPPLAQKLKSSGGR"}, "[17]": {"system": "CTSL1_1 FRET substrate (ALFKSSFP)"}, "[18]": {"system": "CTSL1_2 8-mer FRET substrate Mca-ALFFSSPPK-Dnp"}},
  "data": [
    {"substance": "Cathepsin L (CTSL1), recombinant human", "values": [
      {"measurement": "30-mer peptide degradation by recombinant enzyme (MSP-MS)", "setting": "[1]", "value": "The most efficiently cleaved peptides were those containing the FAPa_1, CTSL1_1 and ADAM17_2 motifs, in multiple orders"},
      {"measurement": "30-mer peptide degradation by recombinant enzyme (MSP-MS)", "setting": "[2]", "value": "Peptides bearing the MMP14_1 motif with CTSL1_1 and ADAM17_2 were slightly lower efficiency"},
      {"measurement": "30-mer peptide degradation by recombinant enzyme (MSP-MS)", "setting": "[3]", "value": "CTSL1 treatment of the 30-mer peptide library produced cleavages in all peptides bearing a CTSL1_1 or CTSL1_2 motif"},
      {"measurement": "30-mer peptide degradation by recombinant enzyme (MSP-MS)", "setting": "[4]", "value": "Peptides bearing the MMP14_1 motif with CTSL1_1 and ADAM17_2 were slightly lower efficiency"},
      {"measurement": "30-mer peptide degradation by recombinant enzyme (MSP-MS)", "setting": "[5]", "value": "Peptides bearing the MMP14_1 motif with CTSL1_1 and ADAM17_2 were slightly lower efficiency"},
      {"measurement": "30-mer peptide degradation by recombinant enzyme (MSP-MS)", "setting": "[6]", "value": "Peptides bearing the MMP14_1 motif with CTSL1_1 and ADAM17_2 were slightly lower efficiency"},
      {"measurement": "comparison of cleavage efficiencies across the 30-mer library", "setting": "[6]", "value": "it had slightly higher hepsin susceptibility and lower CTSL1 activity"},
      {"measurement": "30-mer peptide degradation by recombinant enzyme (MSP-MS)", "setting": "[7]", "value": "Peptides bearing the MMP14_1 motif with CTSL1_1 and ADAM17_2 were slightly lower efficiency"},
      {"measurement": "30-mer peptide degradation by recombinant enzyme (MSP-MS)", "setting": "[8]", "value": "CTSL1 treatment of the 30-mer peptide library produced cleavages in all peptides bearing a CTSL1_1 or CTSL1_2 motif"},
      {"measurement": "30-mer peptide degradation by recombinant enzyme (MSP-MS)", "setting": "[9]", "value": "The most efficiently cleaved peptides were those containing the FAPa_1, CTSL1_1 and ADAM17_2 motifs, in multiple orders"},
      {"measurement": "30-mer peptide degradation by recombinant enzyme (MSP-MS)", "setting": "[10]", "value": "The most efficiently cleaved peptides were those containing the FAPa_1, CTSL1_1 and ADAM17_2 motifs, in multiple orders"},
      {"measurement": "FRET substrate cleavage by recombinant enzyme", "setting": "[11]", "value": "This 9-mer FRET substrate bearing the CTSL1_2 motif produced comparable catalytic efficiency to the CTSL1_1 motif"},
      {"measurement": "30-mer peptide cleavage (mass spectrometry)", "setting": "[12]", "value": "Both peptides showed rapid disappearance of substrate (squares) and product formation from cleavage at the target scissile bond"},
      {"measurement": "30-mer peptide degradation by recombinant enzyme (MSP-MS)", "setting": "[12]", "value": "The most efficiently cleaved peptides were those containing the FAPa_1, CTSL1_1 and ADAM17_2 motifs, in multiple orders"},
      {"measurement": "30-mer peptide degradation by recombinant enzyme (MSP-MS)", "setting": "[13]", "value": "Peptides bearing the MMP14_1 motif with CTSL1_1 and ADAM17_2 were slightly lower efficiency"},
      {"measurement": "30-mer peptide degradation by recombinant enzyme (MSP-MS)", "setting": "[14]", "value": "The most efficiently cleaved peptides were those containing the FAPa_1, CTSL1_1 and ADAM17_2 motifs, in multiple orders"},
      {"measurement": "30-mer peptide degradation by recombinant enzyme (MSP-MS)", "setting": "[15]", "value": "The most efficiently cleaved peptides were those containing the FAPa_1, CTSL1_1 and ADAM17_2 motifs, in multiple orders"},
      {"measurement": "30-mer peptide cleavage (mass spectrometry)", "setting": "[16]", "value": "Both peptides showed rapid disappearance of substrate (squares) and product formation from cleavage at the target scissile bond"},
      {"measurement": "30-mer peptide degradation by recombinant enzyme (MSP-MS)", "setting": "[16]", "value": "CTSL1 treatment of the 30-mer peptide library produced cleavages in all peptides bearing a CTSL1_1 or CTSL1_2 motif"},
      {"measurement": "FRET substrate cleavage by recombinant enzyme", "setting": "[17]", "value": "CTSL1 cleaves the FRET substrate bearing the CTSL1_1 motif highly efficiently"},
      {"measurement": "FRET substrate cleavage by recombinant enzyme", "setting": "[18]", "value": "the new CTSL1_2 motif was not cleaved in the context of an 8-mer FRET peptide"}
    ]}
  ]
}
